Series [1] relates to PRC2-5m SUZ12 S583A (HEK293T) (human). Briefly: EMSA. The note with it: EMSA: 0.5 nM nucleosome, PRC2-5m 2-fold dilutions from 2 uM, 10 mM Tris 8.0, 50 mM NaCl, 10% glycerol, on ice 30 min; 4% native gel, 1x TGE, SYBR Gold. (Mobility shift assays separate free from complexed probe on a gel.)
Series [2] addresses mononucleosome (Xenopus laevis histone octamer on 147-bp 601 DNA) (Xenopus laevis). In words: native gel or EMSA; 0.5 nM nucleosomes with PRC2-5m (2-fold serial dilution from 2 μM), 10 mM Tris 8.0, 50 mM NaCl, 10% glycerol, on ice 30 min; 4% native polyacrylamide gel, SYBR Gold.

Turning to 601 mononucleosome, 147 bp, in series [1], the binding signal (fold higher Kd than WT) was determined as 2. Regarding “PRC2-5m (EZH2–EED–SUZ12–RBBP4–AEBP2) containing the S583A mutation of SUZ12, expressed in HEK293T cells (from UniProt Q15910 1-746; O75530 1-441; Q15022 1-739; Q09028 1-425; Q6ZN18 1-295) (complex)”, the fold reduction of the nucleosome binding affinity against the WT complex in series [2] was found to be 2 fold.

For the origin of these results see PMC9645763.
